The target of the assay is human Xkr8 (hXkr8), from hXkr8-TH-mGFP after TEV cleavage (human) (UniProt Q9H6D3). As to the kind of experiment: cryo-EM structure.
Sequence of UniProt Q9H6D3 (Q9H6D3 whole entry): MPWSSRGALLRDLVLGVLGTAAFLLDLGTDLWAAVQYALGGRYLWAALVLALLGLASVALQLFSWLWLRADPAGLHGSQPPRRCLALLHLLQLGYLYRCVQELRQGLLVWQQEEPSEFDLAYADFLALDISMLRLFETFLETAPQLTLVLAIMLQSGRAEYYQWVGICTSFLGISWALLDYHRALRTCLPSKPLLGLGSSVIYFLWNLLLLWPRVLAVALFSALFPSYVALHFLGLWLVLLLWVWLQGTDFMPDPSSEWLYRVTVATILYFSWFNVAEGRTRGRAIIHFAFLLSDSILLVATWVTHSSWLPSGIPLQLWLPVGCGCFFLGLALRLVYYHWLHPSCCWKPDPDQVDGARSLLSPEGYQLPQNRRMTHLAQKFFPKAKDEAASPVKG

“hBSGΔ (human basigin lacking Ig-like domain 1, N152Q/N186Q, C-terminal FLAG) (domain or fragment)” gave a stoichiometry N of 1.

The term stoichiometry N denotes the number of molecules, sites or subunits per partner or assembly.

These data come from publication doi:10.1101/2021.05.06.442885.
